According to patent US20110287458A1 (TEXAS A AND M UNIVERSITY SYSTEM, published 2011):

Target: the molecule itself
Experiment: native PAGE, self-association
Experimental: Native polyacrylamide gel electrophoresis (PAGE) was performed by use of the MINI PROTEAN® 3 electrophoresis cell and a discontinuous buffer system (Ornstein-Davis) according to the standard procedures given by the manufacturer (Bio-Rad Laboratories). Using native PAGE, pure canine S100A12 was evaluated in the presence of 0.3 mM Ca²⁺, 3 mM Ca²⁺, 10 mM Ca²⁺, and 10 mM EGTA.

B1: canine S100A12 (other)
chain: TKLEDHLEGIVDVFHRYSARVGHPDTLSKGEMKQLIIRELPNTLKNTKDQATVDKLFQDLDADKDGQVNFNEFISLVSVVLDTSHKNTHK
notes: Purified from canine leukocytes; Runs as a non-covalent homodimer on native PAGE; In the RIA the tracer is 125I-labelled; In serum and fecal extracts it is the native protein; also called calgranulin C; EN-RAGE
- binding result: binds
